Drawing on patent publication US20150219635A1 (UCB, published 2015), this text covers Kd, kon and koff for 1 molecule.

Assay [1] addresses T1, Fcε3-4 (sub-fragment of IgE-Fc lacking the Cε2 domains) (human, UniProt P01854-1 209-428, limits assumed).
T1 construct: domain: Fcε3-4 (Cε3-Cε4); Production and any glycosylation site mutations not described
As to the kind of experiment: ITC, Fcε3-4 titrated into Fab, 1:1 binding model. The method, then: (§1) Experiments were carried out using a Microcal iTC200 calorimeter (GE Healthcare) at 20° C. in PBS buffer pH 7.4. Depending on the final ratio required, 25-30 μM of protein was used in the calorimeter cell and 10-20 fold higher concentrations were used in the syringe. The number and volume of injections were varied as appropriate. Heats of dilution were subtracted from the data before analysis. […] Analyses were carried out using MicroCal Origin, using a 1:1 binding model when IgE-Fc or Fcε3-4 was titrated into Fab, or a sequential 1:1 binding model when Fab was titrated into IgE-Fc or Fcε3-4.
(§2) One way to establish experimentally that IgE-Fc adopts an […] as it flips between two bent conformations, is to determine the number of Fab binding sites that are available for binding: if rigidly and exclusively bent, only one site will initially be accessible, but if it can flip, then two sites are accessible. We therefore studied the interaction between Fab and IgE-Fc by isothermal titration calorimetry (ITC) and compared with the binding to Fcε3-4 which, lacking the Cε2 domains, always has two accessible sites.
On the technique in general: Isothermal titration calorimetry measures the heat released or taken up as one component is titrated into another.

The target of assay [2] is T1, Fcε3-4 (sub-fragment of IgE-Fc lacking …). As to the kind of experiment: ITC, Fab titrated into Fcε3-4, sequential binding model; first Fab. The method, then:
as §1, §2

For assay [3] the target is unchanged. Put plainly: stopped-flow tryptophan fluorescence, Fab in excess over Fcε3-4, two-step binding; column kon. The method, then: (§3) Experiments were carried out using a Chirascan Plus (Applied Photophysics Ltd) with a stopped-flow attachment at 20° C. in PBS buffer pH 7.4 and with pseudo-first order protein concentrations varied as required. Fluorescence was excited at 280 nm (1 nm slit width) and emitted fluorescence above 305 nm detected with a long-band pass. 6-10 runs were averaged for each experiment. Data were collected and analyzed using supplied software according to the manufacturer's instructions. Experimental transients were fitted either to single-exponential (Eq.1; [IgE-Fc] or [Fcε3-4]>[Fab] and only Fab¹ binding observable) or double-exponential (Eq.2; [Fab]>[IgE-Fc] or [Fcε3-4] and binding of both Fab¹ and Fab² observable) equations: […]
(§4) where F is the observed fluorescence, ΔFₙ is the fluorescence amplitude change for the nth transient, kobsn is the pseudo-first order rate constant for the nth step and Fₑ is the end-point fluorescence. The bimolecular association rate constants for Fab¹ (k₊₁) and Fab² (k₊₂) binding were determined by fitting the linear concentration dependences of kobs1 and kobs2 to Eq. 3: […]

For assay [4] the target is unchanged. Put plainly: stopped-flow tryptophan fluorescence, Fab in excess over Fcε3-4, two-step binding; column kon2. On the procedure:
as §3, §4

Assay [5] has the same target. Put plainly: stopped-flow tryptophan fluorescence, Fcε3-4 in excess over Fab (1:1 complex). On the procedure:
as §3, §4

For assay [6] the target is unchanged. As to the kind of experiment: ITC, Fab titrated into Fcε3-4, sequential binding model; second Fab. On the procedure:
as §1, §2

Assay [7] shares this target. Put plainly: stopped-flow tryptophan fluorescence, Fab in excess over Fcε3-4, two-step binding; column koff. On the procedure:
as §3, §4

T1 sequence (P01854 other isoform, or with tags, fused parts or gaps limits assumed): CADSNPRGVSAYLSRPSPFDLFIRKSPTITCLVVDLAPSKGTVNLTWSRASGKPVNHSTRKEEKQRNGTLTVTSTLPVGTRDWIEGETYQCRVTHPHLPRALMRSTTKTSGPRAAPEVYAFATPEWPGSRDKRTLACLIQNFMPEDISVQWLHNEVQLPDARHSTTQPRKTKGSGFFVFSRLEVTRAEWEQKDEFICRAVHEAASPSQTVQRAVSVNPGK

B1: Fab7 (anti-human IgE Fab, human IgG1 Fab format) (Fab, V domains shown)
VH: QVQLQQSGPGLVKPSQTLSLTCGISGDSVSSNSAAWNWLRQSPSRGLEWLGRTYYRSKWYNDYAVSMKSRITINPDTSRNQFSLQLNSVTPEDTAVYYCARDGEISYDYYYYGMDVWGRGTLVTVSS
VL: QSVLTQPPSASGTPGQRVTISCSGSSSNIGNNGVNWYQQVPGKPPKLLIYYDDLLPSGVSDRFSGSKSGTSASLAISGLQSEDEADYYCEAWDDSLDGVVFGGGTKLTVLG
notes: Expressed transiently in CHO cells; also called anti-IgE Fab; Fab^1
For the molecule B1, the Kd in assay [1] amounted to 90 nM; in assay [2], 34 nM; in assay [6] it was 980 nM. Also, the figures for the kon in assay [3], in assay [4] and in assay [5] were 1e+06 M⁻¹ s⁻¹, 370000 M⁻¹ s⁻¹ and 1e+06 M⁻¹ s⁻¹, respectively. Moreover, in assay [7], the koff was 0.95 s⁻¹.

One may read the Kd as the equilibrium constant for the complex coming apart. A low value points to tighter binding. Broadly, the kon is the second-order rate constant of association. A high value points to faster complex formation. A word on the koff: it is the rate constant with which the complex falls apart. The low end stands for a long-lived complex, the high end for a short-lived complex.
